From article PMC10681739, “High-throughput data and modeling reveal insights into the mechanisms of cooperative DNA-binding by transcription factor proteins”

Target: RUNX1 (Homo sapiens, UniProt Q01196)
Assay: gcPBM; 2 nM RUNX1
Details: tags: N-terminal GST (pDEST15), kept (PMC6008103); label: surface-attached array probe

RUNX1, sequence (Q01196 whole entry): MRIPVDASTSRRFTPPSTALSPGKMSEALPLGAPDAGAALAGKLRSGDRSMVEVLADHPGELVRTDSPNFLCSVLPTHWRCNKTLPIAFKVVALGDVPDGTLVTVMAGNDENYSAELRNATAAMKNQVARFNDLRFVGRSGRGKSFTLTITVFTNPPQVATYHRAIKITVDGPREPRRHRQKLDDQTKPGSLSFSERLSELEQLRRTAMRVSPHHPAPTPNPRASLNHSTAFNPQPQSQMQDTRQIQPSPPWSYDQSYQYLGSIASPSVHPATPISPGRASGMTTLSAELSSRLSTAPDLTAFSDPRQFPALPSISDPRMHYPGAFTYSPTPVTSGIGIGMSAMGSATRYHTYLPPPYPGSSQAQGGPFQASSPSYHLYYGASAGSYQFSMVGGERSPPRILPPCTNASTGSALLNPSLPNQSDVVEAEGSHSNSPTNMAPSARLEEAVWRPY

B1: Table S3 C row 131 (dsDNA)
DNA 1: AGTTGGTAGCGCCAACGGAAGCCCATGCCAAACTTG
DNA 2: CAAGTTTGGCATGGGCTTCCGTTGGCGCTACCAACT
binding signal: 778 PBM fluorescence, median of replicate spots

B2: Table S3 C row 59 (dsDNA)
DNA 1: TCTTACGGGCGGGGCCGGAAGAGGGAGTCGCGCTGC
DNA 2: GCAGCGCGACTCCCTCTTCCGGCCCCGCCCGTAAGA
binding signal: 793 PBM fluorescence, median of replicate spots

B3: Table S3 C row 28 (dsDNA)
DNA 1: GTTCCTAGTCCGCTCCGGAAATGCAACTGCGTACGG
DNA 2: CCGTACGCAGTTGCATTTCCGGAGCGGACTAGGAAC
binding signal: 793 PBM fluorescence, median of replicate spots

B4: Table S3 C row 40 (dsDNA)
DNA 1: GCACCTGTATTGCCGTTTCCGGTTCGCCTTCGGAGC
DNA 2: GCTCCGAAGGCGAACCGGAAACGGCAATACAGGTGC
binding signal: 799 PBM fluorescence, median of replicate spots

B5: Table S3 C row 2 (dsDNA)
DNA 1: TGGACCTAGGGCAGACGGAAGTTTTGGGAGGGCCGG
DNA 2: CCGGCCCTCCCAAAACTTCCGTCTGCCCTAGGTCCA
binding signal: 810 PBM fluorescence, median of replicate spots

B6: Table S3 C row 148 (dsDNA)
DNA 1: GGCTGCCCGTACTCCCGGAAGCCGAATCCCGGCTGG
DNA 2: CCAGCCGGGATTCGGCTTCCGGGAGTACGGGCAGCC
binding signal: 775 PBM fluorescence, median of replicate spots

B7: Table S3 C row 34 (dsDNA)
DNA 1: TTACGGCAAGCCTCACTTCCGGTCTGAACATTACGG
DNA 2: CCGTAATGTTCAGACCGGAAGTGAGGCTTGCCGTAA
binding signal: 808 PBM fluorescence, median of replicate spots

B8: Table S3 C row 190 (dsDNA)
DNA 1: CGCTCGTAAGTGCTCCGGATGGAATCTGGTGCAGGG
DNA 2: CCCTGCACCAGATTCCATCCGGAGCACTTACGAGCG
binding signal: 780 PBM fluorescence, median of replicate spots

B9: Table S3 C row 196 (dsDNA)
DNA 1: GGGGTTCAGTGCCTCTTTCCGTTGGAGAGAACCTCT
DNA 2: AGAGGTTCTCTCCAACGGAAAGAGGCACTGAACCCC
binding signal: 810 PBM fluorescence, median of replicate spots

B10: Table S3 C row 85 (dsDNA)
DNA 1: CAGTCTGGCCCTCCACTTCCTGTTTTTATAAATGAA
DNA 2: TTCATTTATAAAAACAGGAAGTGGAGGGCCAGACTG
binding signal: 810 PBM fluorescence, median of replicate spots

B11: Table S3 C row 24 (dsDNA)
DNA 1: CCCACGCTCTGCGTGCTTCCGGCGAGCAAAGCCCCG
DNA 2: CGGGGCTTTGCTCGCCGGAAGCACGCAGAGCGTGGG
binding signal: 766 PBM fluorescence, median of replicate spots

B12: Table S3 C row 15 (dsDNA)
DNA 1: CAGCCAGCCCTCGCACGGAAGCGAACTTGCTGTCAC
DNA 2: GTGACAGCAAGTTCGCTTCCGTGCGAGGGCTGGCTG
binding signal: 769 PBM fluorescence, median of replicate spots

B13: Table S3 C row 91 (dsDNA)
DNA 1: CACATACTACTACAACTTCCGGCAGGCTCCGCGCCC
DNA 2: GGGCGCGGAGCCTGCCGGAAGTTGTAGTAGTATGTG
binding signal: 795 PBM fluorescence, median of replicate spots

B14: Table S3 C row 80 (dsDNA)
DNA 1: CAAAAGGGCTGCCAGTTTCCGCCCCTTCTAGCGAGC
DNA 2: GCTCGCTAGAAGGGGCGGAAACTGGCAGCCCTTTTG
binding signal: 794 PBM fluorescence, median of replicate spots

B15: Table S3 C row 45 (dsDNA)
DNA 1: CCGCTGGGGCAGGAGTTTCCGGCGGACTCGGCTAGG
DNA 2: CCTAGCCGAGTCCGCCGGAAACTCCTGCCCCAGCGG
binding signal: 802 PBM fluorescence, median of replicate spots

B16: Table S3 C row 139 (dsDNA)
DNA 1: TAAATGGAAAGCATACATCCTGTTTTTTTGCTGTAG
DNA 2: CTACAGCAAAAAAACAGGATGTATGCTTTCCATTTA
binding signal: 802 PBM fluorescence, median of replicate spots

B17: Table S3 C row 18 (dsDNA)
DNA 1: GCTGTGATTGCCTCACTTCCTGTGTCATGTGACGCT
DNA 2: AGCGTCACATGACACAGGAAGTGAGGCAATCACAGC
binding signal: 805 PBM fluorescence, median of replicate spots

B18: Table S3 C row 99 (dsDNA)
DNA 1: CGCTCCAGGGCCTCCCGGATGGCCTAGTCGGGCCCG
DNA 2: CGGGCCCGACTAGGCCATCCGGGAGGCCCTGGAGCG
binding signal: 786 PBM fluorescence, median of replicate spots

B19: Table S3 C row 102 (dsDNA)
DNA 1: CCCCGCGTCCCAGACCGGAAGAAGCCCGGCGCAGAC
DNA 2: GTCTGCGCCGGGCTTCTTCCGGTCTGGGACGCGGGG
binding signal: 770 PBM fluorescence, median of replicate spots

B20: Table S3 C row 56 (dsDNA)
DNA 1: CGCTCAGAGCTACGGCGGAAATGCCGCTCTTTTAAC
DNA 2: GTTAAAAGAGCGGCATTTCCGCCGTAGCTCTGAGCG
binding signal: 786 PBM fluorescence, median of replicate spots

B21: Table S3 C row 78 (dsDNA)
DNA 1: ATTCCAATGGCAGGCAGGAAATCTTGTAGTAGGTGA
DNA 2: TCACCTACTACAAGATTTCCTGCCTGCCATTGGAAT
binding signal: 802 PBM fluorescence, median of replicate spots

B22: Table S3 C row 92 (dsDNA)
DNA 1: TCCCTAGTTTCTGCCCGGAAGATGGAGCCGCCATCT
DNA 2: AGATGGCGGCTCCATCTTCCGGGCAGAAACTAGGGA
binding signal: 788 PBM fluorescence, median of replicate spots

B23: Table S3 C row 168 (dsDNA)
DNA 1: CAGAAGTCCCGACCCCATCCTGCCACGCCTCAGCGT
DNA 2: ACGCTGAGGCGTGGCAGGATGGGGTCGGGACTTCTG
binding signal: 810 PBM fluorescence, median of replicate spots

B24: Table S3 C row 14 (dsDNA)
DNA 1: TCCTGCCGACGTGTTCTTCCGGTGGCGGAGCGGCGG
DNA 2: CCGCCGCTCCGCCACCGGAAGAACACGTCGGCAGGA
binding signal: 791 PBM fluorescence, median of replicate spots

B25: Table S3 C row 112 (dsDNA)
DNA 1: ACGTTGCCTCACTGCAGGAAGTGACCCAGGCCTTGC
DNA 2: GCAAGGCCTGGGTCACTTCCTGCAGTGAGGCAACGT
binding signal: 771 PBM fluorescence, median of replicate spots

B26: Table S3 C row 97 (dsDNA)
DNA 1: CACCTGCTACTCAAAGTTCCGCCTCTCTTCAGCGAG
DNA 2: CTCGCTGAAGAGAGGCGGAACTTTGAGTAGCAGGTG
binding signal: 779 PBM fluorescence, median of replicate spots

B27: Table S3 C row 4 (dsDNA)
DNA 1: CTCTCAACCCAGCCGCTTCCTGGTTGTTCGTCGCAA
DNA 2: TTGCGACGAACAACCAGGAAGCGGCTGGGTTGAGAG
binding signal: 782 PBM fluorescence, median of replicate spots

B28: Table S3 C row 155 (dsDNA)
DNA 1: TCCAGGCACTATTTTCGGAAGCAGAGACACAGTGCC
DNA 2: GGCACTGTGTCTCTGCTTCCGAAAATAGTGCCTGGA
binding signal: 791 PBM fluorescence, median of replicate spots

B29: Table S3 C row 111 (dsDNA)
DNA 1: GGATCCAGGACACTCCGGAAGACATCGTGCTGGAAG
DNA 2: CTTCCAGCACGATGTCTTCCGGAGTGTCCTGGATCC
binding signal: 774 PBM fluorescence, median of replicate spots

B30: Table S3 C row 159 (dsDNA)
DNA 1: GTAAATACACTCATGTTTCCGCTCTCAGCCGTCAGT
DNA 2: ACTGACGGCTGAGAGCGGAAACATGAGTGTATTTAC
binding signal: 801 PBM fluorescence, median of replicate spots

B31: Table S3 C row 66 (dsDNA)
DNA 1: CCAGGACAGCACCTATTTCCTGCTGGTGTAACAGAG
DNA 2: CTCTGTTACACCAGCAGGAAATAGGTGCTGTCCTGG
binding signal: 778 PBM fluorescence, median of replicate spots

B32: Table S3 C row 51 (dsDNA)
DNA 1: CACAGAGACACCAACAGGAAGAGACCAGAGAGCCAA
DNA 2: TTGGCTCTCTGGTCTCTTCCTGTTGGTGTCTCTGTG
binding signal: 807 PBM fluorescence, median of replicate spots

B33: Table S3 C row 195 (dsDNA)
DNA 1: TCGCGCTGGACGAAGCGGAAGAAGATGGCGCTCACC
DNA 2: GGTGAGCGCCATCTTCTTCCGCTTCGTCCAGCGCGA
binding signal: 794 PBM fluorescence, median of replicate spots

B34: Table S3 C row 17 (dsDNA)
DNA 1: CGCGGGTCATGTGACCGGAAGGGCTCCTCACGGACG
DNA 2: CGTCCGTGAGGAGCCCTTCCGGTCACATGACCCGCG
binding signal: 798 PBM fluorescence, median of replicate spots

B35: Table S3 C row 55 (dsDNA)
DNA 1: GGGTTCATGTTTAGCAGGAAGTTGAAATGACTCACC
DNA 2: GGTGAGTCATTTCAACTTCCTGCTAAACATGAACCC
binding signal: 803 PBM fluorescence, median of replicate spots

B36: Table S3 C row 95 (dsDNA)
DNA 1: CGCAGGGTCACGTGACATCCTGCCTCGCCCCGCCCA
DNA 2: TGGGCGGGGCGAGGCAGGATGTCACGTGACCCTGCG
binding signal: 783 PBM fluorescence, median of replicate spots

B37: Table S3 C row 38 (dsDNA)
DNA 1: AGTGAAACATCAGAGCTTCCTGTTACATCACTCTGA
DNA 2: TCAGAGTGATGTAACAGGAAGCTCTGATGTTTCACT
binding signal: 789 PBM fluorescence, median of replicate spots

B38: Table S3 C row 169 (dsDNA)
DNA 1: CGCGGGCCCGGCCAGCGGAAGCCCCTGCGCCCGCGC
DNA 2: GCGCGGGCGCAGGGGCTTCCGCTGGCCGGGCCCGCG
binding signal: 779 PBM fluorescence, median of replicate spots

B39: Table S3 C row 191 (dsDNA)
DNA 1: GATTGGTTCTCTAAGCTTCCGTCAGTTTACAATCCT
DNA 2: AGGATTGTAAACTGACGGAAGCTTAGAGAACCAATC
binding signal: 775 PBM fluorescence, median of replicate spots

B40: Table S3 C row 84 (dsDNA)
DNA 1: GCTTCTGGGAGAAGCCGGAAGAGACCTGACCCTGAA
DNA 2: TTCAGGGTCAGGTCTCTTCCGGCTTCTCCCAGAAGC
binding signal: 782 PBM fluorescence, median of replicate spots

B41: Table S3 C row 109 (dsDNA)
DNA 1: GCAGCACGCAGCAACCGGAAGTCAATGGACGAAGAC
DNA 2: GTCTTCGTCCATTGACTTCCGGTTGCTGCGTGCTGC
binding signal: 792 PBM fluorescence, median of replicate spots

B42: Table S3 C row 86 (dsDNA)
DNA 1: CGCGTGATGGACGCCCGGAAGCCGGCACAACAAATG
DNA 2: CATTTGTTGTGCCGGCTTCCGGGCGTCCATCACGCG
binding signal: 777 PBM fluorescence, median of replicate spots

B43: Table S3 C row 152 (dsDNA)
DNA 1: TTTCCCCGACCCCGCCGGAAGACCAGGCCGGCGCGG
DNA 2: CCGCGCCGGCCTGGTCTTCCGGCGGGGTCGGGGAAA
binding signal: 787 PBM fluorescence, median of replicate spots

B44: Table S3 C row 124 (dsDNA)
DNA 1: ACTTGGGGCATGCAATTTCCGGCAGCACAGAAAACA
DNA 2: TGTTTTCTGTGCTGCCGGAAATTGCATGCCCCAAGT
binding signal: 766 PBM fluorescence, median of replicate spots

B45: Table S3 C row 67 (dsDNA)
DNA 1: AAAAAAAAAAAAAAAGTTCCGGCCGGGCTGCGCCTC
DNA 2: GAGGCGCAGCCCGGCCGGAACTTTTTTTTTTTTTTT
binding signal: 810 PBM fluorescence, median of replicate spots
